For orientation: EC50 means the midpoint of the concentration-response curve.

Data set [1] in a line: Body weight and liver weight in ob/ob mice. Type of data set: in vivo. The settings on record: single SC dose 3 mg/kg; for Cumulative body weight change, mean body weight: FIG. 5A; for mean liver weight: FIG. 5B. The procedure:
(§1) The efficacy of FGF21 antibodies conjugates was evaluated in two murine obese insulin resistant models—ob/ob mice and high-fat diet-induced obese mice. For both models, male mice (6-8 weeks of age for ob/ob, 12-14 weeks of age for DIO with high-fat diet initiated at 6 weeks of age) were housed 2-4/cage and FGF21 antibody conjugates were administered by SC injection. Body weight was measured daily in the morning. Glucose tolerance was assessed by oral glucose tolerance test. Briefly, mice were fasted for 4-5 hrs in the morning of the day of testing. A basal blood sample was obtained and blood glucose levels were determined using a portable glucometer.

The test system of data set [2] is ob/ob mice. Briefly: Oral glucose tolerance test in ob/ob mice (FGF21 conjugates). The format is in vivo. The settings on record: ob/ob mice; for Mean Glucose AUC (% of vehicle control) during OGTT: FIGS. 4A/4B, single SC dose 3 mg/kg. The procedure: as §1
The nature of data set [3]: Mouse pharmacokinetics of FGF21 antibody conjugates. The format is in vivo, Swiss-Webster mice. The settings on record: mice. As for the experimental part: The PK of FGF21 antibody conjugates were examined in mice after IV or SC administration. […] Antibody conjugates concentrations in serum were determined using an ELISA which captured the FGF21 portion of the antibody conjugates through a monoclonal anti-hFGF21 antibody bound to a 96-well plate. FGF21 antibody conjugates bound to the plate were detected through an anti-hFc monoclonal antibody, and concentrations were determined using a standard curve of the PK dosing solution diluted into serum-containing assay buffer. SC bioavailability was calculated as the ratio of the area-under the curve (AUC) of the SC serum concentration profile divided by the AUC of the IV serum concentration profile.

In data set [4] the target is Glut1 mRNA expression in differentiated 3T3-L1 adipocytes (Mus musculus, UniProt P16092+Q99N32). Nature of the data set: Glut1 Taqman assay. The following applies: for EC50: 6 hrs. Type of data set: cell-based. The procedure: Differentiated 3T3-L1 adipocytes were used to measure the Glut1 mRNA expression by qPCR method. Overnight serum starved day 10-14 differentiated 3T3-L1 adipocytes were treated with compounds for 6 hrs. Total RNA was extracted from these cells, and Glut1 and GAPDH mRNA expression was measured using a Quantitect Probe RT-PCR kit and running a quantitative real time PCR reaction in a Taqman machine (Applied Biosystems®). The bioactivity of the compounds was determined by a fold change in Glut1 mRNA levels normalized by the GAPDH mRNA levels from each sample. EC═values as measurements of the potency of the compounds were obtained from the dose response curves in the assay.
3T3-L1 adipocytes were seeded at day 8 in 24-well tissue culture plates (Falcon®, Cat#353047), and incubated in DMEM complete medium (10% FBS, 2 mM L-glutamine, 1% P/S) at 37° C., 5% CO2. […] The medium was aspirated, and then RNA extracted from the cells using the RNeasy mini Kit according to the manufacturer's instructions. RNA was measured at A260 nm using the Spectramax® Plus spectrophotometer.
In Glut1 Taqman assay, differentiated 3T3-L1 adipocytes were used to measure the Glut1 mRNA expression by real-time quantitative PCR (qPCR) method described below. Overnight serum starved day 10-14 differentiated 3T3-L1 adipocytes were treated with compounds for 6 hrs. Total RNA was extracted from these cells, and Glut1 and GAPDH mRNA expression was measured using a Quantitect Probe RT-PCR kit and running a real time quantitative PCR reaction in a Taqman machine. The bioactivity of the compounds was determined by a fold change in Glut1 mRNA levels normalized by the GAPDH mRNA levels from each sample. In cAMP assay, Chinese hamster ovary (CHO) cells over-expressing human GLP-1R(CHO-hGLP-1R) were seeded in 96-well plates in serum-free medium with 300 uM IBMX. Cells were incubated with compounds at RT for 1 hr. The cAMP levels were measured using a CisBio cAMP Kit according to manufacturer's instructions. The bioactivity of the compounds was determined by the EC50 values obtained from the assay (see Table 42).
For orientation: Real-time PCR tracks product formation cycle by cycle.

Data set [5] has as its target differentiated 3T3-L1 adipocytes (Mus musculus, UniProt P16092+Q99N32). Nature of the data set: Glucose uptake assay. Type of data set: cell-based. As for the experimental part: Differentiated 3T3-L1 adipocytes were treated with compounds in the absence of serum for 24 hrs. Cells were then incubated with ^14C-2-deoxyglucose for 1 hr and glucose uptake into the cells was quantitated in Wallac 1450 MicroBeta (Trilux) instrument. Glucose uptake was expressed in counts per min (CPM). EC50 values as measurements of the potency of the compounds were obtained from the dose response curves in the assay.

Where [6] appears, read: differentiated 3T3-L1 adipocytes, protein or antibody conjugate as labelled, read-out: Glut1 Taqman assay EC50.
Where [7] appears, read: 3T3-L1 adipocytes, 24 hrs, unconjugated protein.

Positions count from the first letter of the chain named. Names may count otherwise. “And” between values parts separate entries of the source, which are not always exact repeats. Identical values can stand only once. Like-named read-outs stand apart in the source and are kept apart here.

Sequence of Glut1 mRNA expression in differentiated 3T3-L1 adipocytes (P16092 22-822): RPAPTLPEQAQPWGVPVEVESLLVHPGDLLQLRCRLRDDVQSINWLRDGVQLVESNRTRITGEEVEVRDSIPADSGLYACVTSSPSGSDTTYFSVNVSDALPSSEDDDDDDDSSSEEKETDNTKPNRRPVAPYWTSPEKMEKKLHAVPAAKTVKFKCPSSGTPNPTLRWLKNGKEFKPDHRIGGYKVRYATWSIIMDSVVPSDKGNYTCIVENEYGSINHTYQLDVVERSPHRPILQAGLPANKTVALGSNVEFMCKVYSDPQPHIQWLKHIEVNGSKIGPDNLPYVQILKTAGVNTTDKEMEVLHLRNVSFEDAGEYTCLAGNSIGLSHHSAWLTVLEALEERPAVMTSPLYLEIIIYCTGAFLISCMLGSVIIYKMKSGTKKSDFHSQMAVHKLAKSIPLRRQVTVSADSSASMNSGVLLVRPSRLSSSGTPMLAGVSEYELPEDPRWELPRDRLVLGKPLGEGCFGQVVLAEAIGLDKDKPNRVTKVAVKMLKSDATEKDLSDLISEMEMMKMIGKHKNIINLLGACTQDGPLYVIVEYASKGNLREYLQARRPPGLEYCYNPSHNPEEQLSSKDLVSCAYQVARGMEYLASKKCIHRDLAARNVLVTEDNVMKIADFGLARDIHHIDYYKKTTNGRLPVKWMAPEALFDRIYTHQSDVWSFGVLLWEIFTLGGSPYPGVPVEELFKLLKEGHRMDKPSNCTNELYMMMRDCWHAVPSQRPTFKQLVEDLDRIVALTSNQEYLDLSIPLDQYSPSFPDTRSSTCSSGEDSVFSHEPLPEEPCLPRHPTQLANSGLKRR
Sequence of Glut1 mRNA expression in differentiated 3T3-L1 adipocytes (Q99N32 whole entry): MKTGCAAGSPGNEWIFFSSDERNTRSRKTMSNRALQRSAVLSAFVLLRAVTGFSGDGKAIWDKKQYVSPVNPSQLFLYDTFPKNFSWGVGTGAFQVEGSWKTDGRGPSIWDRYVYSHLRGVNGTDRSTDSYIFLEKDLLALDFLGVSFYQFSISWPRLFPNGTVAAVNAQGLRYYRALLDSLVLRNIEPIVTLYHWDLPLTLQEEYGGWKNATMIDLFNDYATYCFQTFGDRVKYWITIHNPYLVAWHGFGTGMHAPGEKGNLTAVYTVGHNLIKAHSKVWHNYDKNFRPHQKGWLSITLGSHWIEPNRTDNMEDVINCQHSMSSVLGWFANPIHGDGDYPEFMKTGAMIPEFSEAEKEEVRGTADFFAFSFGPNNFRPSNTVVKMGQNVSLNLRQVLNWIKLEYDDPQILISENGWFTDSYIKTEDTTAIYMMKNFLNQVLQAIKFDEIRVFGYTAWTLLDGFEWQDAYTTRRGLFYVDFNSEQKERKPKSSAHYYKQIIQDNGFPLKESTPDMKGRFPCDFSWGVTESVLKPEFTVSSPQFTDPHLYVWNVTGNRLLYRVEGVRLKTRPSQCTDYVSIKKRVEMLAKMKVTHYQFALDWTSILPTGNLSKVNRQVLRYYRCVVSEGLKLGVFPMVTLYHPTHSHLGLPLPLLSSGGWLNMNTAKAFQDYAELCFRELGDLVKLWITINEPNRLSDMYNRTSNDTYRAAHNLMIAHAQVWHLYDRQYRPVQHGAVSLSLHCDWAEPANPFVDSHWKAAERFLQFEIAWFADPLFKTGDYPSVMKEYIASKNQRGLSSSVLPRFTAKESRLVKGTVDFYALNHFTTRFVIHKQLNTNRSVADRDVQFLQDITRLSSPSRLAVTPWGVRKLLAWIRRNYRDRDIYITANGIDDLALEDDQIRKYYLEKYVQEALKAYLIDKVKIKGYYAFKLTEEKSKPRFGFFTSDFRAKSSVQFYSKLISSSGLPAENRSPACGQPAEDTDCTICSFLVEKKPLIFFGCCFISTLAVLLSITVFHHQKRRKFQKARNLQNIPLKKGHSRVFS
Sequence of differentiated 3T3-L1 adipocytes (P16092 22-822): as the sequence (P16092 22-822) above
Sequence of differentiated 3T3-L1 adipocytes (Q99N32 whole entry): as the sequence (Q99N32 whole entry) above

B1: Ab-L5-FGF21ΔH-Knull-H1K: SEQ ID NO:23 combined with L5 at H1K and conjugated with h38C2 (conjugate, listed as Homo sapiens)
chain: KPIPDSSPLLQFGGQVRQRYLYTDDAQQTEAHLEIREDGTVGGAADQSPESLLQLRALRPGVIQILGVRTSRFLCQRPDGALYGSLHFDPEACSFRELLLEDGYNVYQSEAHGLPLHLPGNRSPHRDPAPRGPARFLPLPGLPPALPEPPGILAPQPPDVGSSDPLSMVGPSQGRSPSYAS
modifications: L5 linker at K1 conjugated to h38C2 antibody
As to B1, in data set [1], the “Cumulative body weight change, mean body weight” value was 2.6 g and the “mean liver weight” value amounted to 2.4 g. For the same molecule, in data set [2], the “Mean Glucose AUC (% of vehicle control) during OGTT” value is 100 % of vehicle control and the “glucose tolerance in ob/ob mice (in words)” value is on record as “compared poorly against Ab-FGF21ΔH-H125C”.

B2: FGF21ΔH-Knull-H1K: FGF21 lysine-null mutant with H1K, SEQ ID NO:23 (protein, listed as Homo sapiens)
chain: B1 chain
In data set [3], B2 came in with an IV half-life of 16 h, an SC bioavailability of 51% and an SC half-life of 11 h. For the same molecule, the EC50 in data set [4] (setting [6]) was 6.4 nM and 4.3 nM.

B3: Ab-L5-FGF21ΔH-K59: SEQ ID NO:19 combined with L5 at K59 and conjugated with h38C2 (conjugate, listed as Homo sapiens)
chain: PIPDSSPLLQFGGQVRQRYLYTDDAQQTEAHLEIREDGTVGGAADQSPESLLQLRALKPGVIQILGVRTSRFLCQRPDGALYGSLHFDPEACSFRELLLEDGYNVYQSEAHGLPLHLPGNRSPHRDPAPRGPARFLPLPGLPPALPEPPGILAPQPPDVGSSDPLSMVGPSQGRSPSYAS
modifications: L5 linker at K59 conjugated to h38C2 antibody
On to B3, for which the IV half-life in data set [3] worked out at 13 h. Moreover, in data set [1], the “Cumulative body weight change, mean body weight” value is given as 2.7 g and the “mean liver weight” value is given as 2.4 g. Besides, the “Mean Glucose AUC (% of vehicle control) during OGTT” value in data set [2] is 105 % of vehicle control. The EC50 in data set [4] (setting [6]) turned out to be 6.5 nM.

B4: Ab-L5-FGF21ΔH-Knull-S181K: SEQ ID NO:24 combined with L5 at S181K and conjugated with h38C2 (conjugate, listed as Homo sapiens)
chain: B3 chain with K58R, S180K
modifications: L5 linker at K181 conjugated to h38C2 antibody
As to B4, in data set [4] (setting [6]), the EC50 is more than 500 nM.

B5: FGF21ΔH-K56R-K59-K69R-K122R: FGF21 lysine mutant, SEQ ID NO:19 (protein, listed as Homo sapiens)
chain: B3 chain
In the case of B5, the EC50 is 0.6 nM in data set [4] (setting [6]) and 0.9 nM in data set [5] (setting [7]).

B6: Ab-L5-FGF21ΔH-Knull-P2: SEQ ID NO:22 combined at the N' terminus of P2 with L5 and conjugated with h38C2 (conjugate, listed as Homo sapiens)
chain: B3 chain with K58R
modifications: L5 linker at N-terminus, conjugated to h38C2 antibody
In the case of B6, in data set [3], the IV half-life is 17 h. In addition, in data set [4] (setting [6]), the EC50 amounted to 16.6 nM.

B7: FGF21ΔH-L86C: FGF21 cysteine mutant, SEQ ID NO:14 (protein, listed as Homo sapiens)
chain: B3 chain with R55K, R68K, L85C, R121K
With B7, the EC50 in data set [5] (unconjugated protein (per Examples 18-21), n in parentheses) turned out to be 62 nM.

B8: FGF21ΔH-K56-K59R-K69R-K122R: FGF21 lysine mutant, SEQ ID NO:18 (protein, listed as Homo sapiens)
chain: B3 chain with R55K, K58R
As for B8, the EC50 in data set [4] (setting [6]) worked out at 0.9 nM; in data set [5] (setting [7]), 5.5 nM.

B9: FGF21ΔH-Knull-P2: FGF21 lysine-null mutant, SEQ ID NO:22 (protein, listed as Homo sapiens)
chain: B3 chain with K58R
For the molecule B9, the EC50 in data set [4] (setting [6]) turned out to be 1.2 nM.

B10: FGF21ΔH-H125C: FGF21 cysteine mutant, SEQ ID NO:7 (protein, listed as Homo sapiens)
chain: B3 chain with R55K, R68K, R121K, H124C
Turning to B10, the EC50 in data set [4] (setting [6]) turned out to be 1.2 nM.

B11: FGF21ΔH-Knull-S181K: FGF21 lysine-null mutant with S181K, SEQ ID NO:24 (protein, listed as Homo sapiens)
chain: B3 chain with K58R, S180K
As for B11, in data set [4] (setting [6]), the EC50 worked out at 7.5 nM.

B12: FGF21ΔH-K56R-K59R-K69-K122R: FGF21 lysine mutant, SEQ ID NO:20 (protein, listed as Homo sapiens)
chain: B3 chain with K58R, R68K
Take B12: the EC50 was determined as 1.3 nM in data set [4] (setting [6]) and 5.2 nM in data set [5] (setting [7]).

B13: FGF21ΔH-A129C: FGF21 cysteine mutant, SEQ ID NO:10 (protein, listed as Homo sapiens)
chain: B3 chain with R55K, R68K, R121K, A128C
Regarding B13, in data set [4] (3T3-L1 adipocytes), the “activity in Glut1 Taqman assay (in words)” value is on record as “dose-dependent Glut1 induction”. For the same molecule, the EC50 turned out to be 16 nM in data set [4] (3T3-L1 adipocytes, serum-free DMEM 0.2% BSA, Taqman quantitative real-time PCR, read-out: Glut1 RNA expression EC50) and 1.4 nM in data set [4] (setting [6]).

B14: FGF21ΔH-K56-K59R-K69R-K122: FGF21 lysine mutant, SEQ ID NO:21 (protein, listed as Homo sapiens)
chain: B3 chain with K58R, R121K
For B14, the figures for the EC50 in data set [4] (setting [6]) and in data set [5] (setting [7]) were 2.6 nM and 1.7 nM, respectively.

The values above are taken from patent US9163227B2, “Anti-diabetic compounds” (PFIZER INC., priority 2011, dated 2015).
